The target in assay [1] is recombinant KIR2DL3 protein (entire extracellular domain, produced in E. coli, refolded) (human) (UniProt P43628). The assay can be described thus: BIAcore, second Ab on KIR2DL3 chip with first Ab (competitor) 1-4F1 bound.
The target is the same in assay [2]. In words: BIAcore, second Ab on KIR2DL3 chip with first Ab (competitor) 1-7F9 bound.
Assay [3] shares this target. The assay can be described thus: BIAcore competition on KIR2DL3 chip; first Ab gl183, second Ab (competitor) 1-6F1.
Assay [4] has the same target. The assay can be described thus: BIAcore, direct binding of second Ab to KIR2DL3 chip (field of first Ab 1-7F9).
For assay [5] the target is unchanged. In words: BIAcore competition on KIR2DL3 chip; first Ab gl183, second Ab (competitor) Pan2D.
Assay [6] shares this target. In words: BIAcore, second Ab on KIR2DL3 chip with first Ab (competitor) 1-6F1 bound.
Assay [7] shares this target. In words: BIAcore competition on KIR2DL3 chip; first Ab gl183, second Ab (competitor) DF200.
The target is the same in assay [8]. In words: BIAcore competition on KIR2DL3 chip; first Ab gl183, second Ab (competitor) 1-7F9.
The target is the same in assay [9]. The assay can be described thus: BIAcore, direct binding of second Ab to KIR2DL3 chip (field of first Ab 1-6F1).
The target is the same in assay [10]. The assay can be described thus: BIAcore, direct binding of second Ab to KIR2DL3 chip (field of first Ab 1-4F1).
For assay [11] the target is unchanged. The assay can be described thus: BIAcore competition on KIR2DL3 chip; first Ab gl183, second Ab (competitor) 1-4F1.
Assay [12] has as its target immobilized KIR2DS1 (UniProt Q14954). The assay can be described thus: BIAcore competition on KIR2DS1 chip; first Ab DF200, second Ab (competitor) Pan2D.
Assay [13] concerns the target recombinant KIR2DL3 protein (entire extracellular domain, produced in E. coli, refolded) (human) (UniProt P43628). In words: BIAcore competition on KIR2DL3 chip; first Ab DF200, second Ab (competitor) 1-7F9.
Assay [14] has as its target recombinant KIR2DL1 protein (entire extracellular domain, produced in E. coli, refolded) (human) (UniProt P43626). In words: BIAcore, second Ab on KIR2DL1 chip with first Ab (competitor) 1-6F1 bound.
Assay [15] has the same target. The assay can be described thus: BIAcore, second Ab on KIR2DL1 chip with first Ab (competitor) 1-7F9 bound.
Assay [16] concerns the target immobilized KIR2DS1 (UniProt Q14954). In words: BIAcore, second Ab on KIR2DS1 chip with first Ab (competitor) 1-7F9 bound.
In assay [17] the target is recombinant KIR2DL1 protein (entire extracellular domain, produced in E. coli, refolded) (human) (UniProt P43626). In words: BIAcore, direct binding of second Ab to KIR2DL1 chip (field of first Ab 1-7F9).
recombinant KIR2DL1 protein (entire extracellular domain, produced in E. coli, refolded) (human), sequence (P43626 22-245): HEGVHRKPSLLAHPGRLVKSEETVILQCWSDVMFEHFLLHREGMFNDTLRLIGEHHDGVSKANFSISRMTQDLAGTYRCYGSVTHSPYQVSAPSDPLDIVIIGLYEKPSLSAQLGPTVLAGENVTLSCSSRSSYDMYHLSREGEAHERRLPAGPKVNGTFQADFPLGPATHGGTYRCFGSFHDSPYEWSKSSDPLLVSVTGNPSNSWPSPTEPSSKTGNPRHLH
Assay [18] has as its target recombinant KIR2DL3 protein (entire extracellular domain, produced in E. coli, refolded) (human) (UniProt P43628). In words: BIAcore competition on KIR2DL3 chip; first Ab DF200, second Ab (competitor) 1-6F5.
Assay [19] deals with recombinant KIR2DL1 protein (entire extracellular domain, produced in E. coli, refolded) (human) (UniProt P43626). In words: BIAcore, second Ab on KIR2DL1 chip with first Ab (competitor) 1-6F5 bound.
The target of assay [20] is recombinant KIR2DL3 protein (entire extracellular domain, produced in E. coli, refolded) (human) (UniProt P43628). The assay can be described thus: BIAcore competition on KIR2DL3 chip; first Ab DF200, second Ab (competitor) gl183.
For assay [21], the target named is immobilized KIR2DS1 (UniProt Q14954). In words: BIAcore, direct binding of second Ab to KIR2DS1 chip (field of first Ab 1-7F9).
immobilized KIR2DS1, sequence (Q14954 22-245 limits assumed): as the sequence (P43626 22-245) above, with T70K, V90L, L114P, P154T, D163N, H182R, K216E counted along it
In assay [22] the target is recombinant KIR2DL1 protein (entire extracellular domain, produced in E. coli, refolded) (human) (UniProt P43626). In words: BIAcore competition on KIR2DL1 chip; first Ab DF200, second Ab (competitor) Pan2D.
The target is the same in assay [23]. The assay can be described thus: BIAcore competition on KIR2DL1 chip; first Ab DF200, second Ab (competitor) 1-6F5.
The target is the same in assay [24]. In words: BIAcore competition on KIR2DL1 chip; first Ab DF200, second Ab (competitor) 1-6F1.
Assay [25] deals with KIR2DL1-hFc (complete extra-cellular domain of KIR2DL1, amino acids H1-H224, wild-type, fused to human Fc) (human) (UniProt P43626). In words: ELISA, KIR2DL1-hFc captured via goat anti-human antibodies, mAb titrated, peroxidase anti-mouse, A450 [panel DF200].
KIR2DL1-hFc (complete extra-cellular domain of KIR2DL1, amino acids H1-H224, wild-type, fused to human Fc) (human), sequence (P43626 22-245): as the sequence (P43626 22-245) above
Assay [26] deals with immobilized KIR2DS1 (UniProt Q14954). The assay can be described thus: BIAcore competition on KIR2DS1 chip; first Ab DF200, second Ab (competitor) 1-7F9.
In assay [27] the target is recombinant KIR2DL3 protein (entire extracellular domain, produced in E. coli, refolded) (human) (UniProt P43628). In words: BIAcore competition on KIR2DL3 chip; first Ab DF200, second Ab (competitor) 1-4F1.
Assay [28] shares this target. In words: BIAcore competition on KIR2DL3 chip; first Ab DF200, second Ab (competitor) Pan2D.
Assay [29] shares this target. In words: BIAcore, second Ab on KIR2DL3 chip with first Ab (competitor) 1-6F5 bound.
Assay [30] has as its target recombinant KIR2DL1 protein (entire extracellular domain, produced in E. coli, refolded) (human) (UniProt P43626). The assay can be described thus: BIAcore competition on KIR2DL1 chip; first Ab DF200, second Ab (competitor) 1-7F9.
Assay [31] deals with immobilized KIR2DS1 (UniProt Q14954). The assay can be described thus: BIAcore competition on KIR2DS1 chip; first Ab DF200, second Ab (competitor) 1-4F1.
For assay [32], the target named is KIR2DL1(R131W)-hFc (human) (UniProt P43626). The assay can be described thus: ELISA, KIR2DL1(R131W)-hFc captured via goat anti-human antibodies, mAb titrated, peroxidase anti-mouse, A450 [panel DF200].
KIR2DL1(R131W)-hFc (human), sequence (P43626 22-245 R152W): as the sequence (P43626 22-245) above, with R131W counted along it
For assay [33], the target named is recombinant KIR2DL3 protein (entire extracellular domain, produced in E. coli, refolded) (human) (UniProt P43628). In words: BIAcore competition on KIR2DL3 chip; first Ab DF200, second Ab (competitor) 1-6F1.
Assay [34] addresses recombinant KIR2DL1 protein (entire extracellular domain, produced in E. coli, refolded) (human) (UniProt P43626). In words: BIAcore, direct binding of second Ab to KIR2DL1 chip (field of first Ab 1-6F5).
In assay [35] the target is recombinant KIR2DL3 protein (entire extracellular domain, produced in E. coli, refolded) (human) (UniProt P43628). The assay can be described thus: BIAcore, direct binding of second Ab to KIR2DL3 chip (field of first Ab 1-6F5).
The target of assay [36] is recombinant KIR2DL1 protein (entire extracellular domain, produced in E. coli, refolded) (human) (UniProt P43626). The assay can be described thus: BIAcore competition on KIR2DL1 chip; first Ab DF200, second Ab (competitor) 1-4F1.
The target is the same in assay [37]. The assay can be described thus: BIAcore competition on KIR2DL1 chip; first Ab DF200, second Ab (competitor) EB6.
Assay [38] has the same target. The assay can be described thus: BIAcore, direct binding of second Ab to KIR2DL1 chip (field of first Ab 1-6F1).

recombinant KIR2DL3 protein (entire extracellular domain, produced in E. coli, refolded) (human), sequence (P43628 22-245): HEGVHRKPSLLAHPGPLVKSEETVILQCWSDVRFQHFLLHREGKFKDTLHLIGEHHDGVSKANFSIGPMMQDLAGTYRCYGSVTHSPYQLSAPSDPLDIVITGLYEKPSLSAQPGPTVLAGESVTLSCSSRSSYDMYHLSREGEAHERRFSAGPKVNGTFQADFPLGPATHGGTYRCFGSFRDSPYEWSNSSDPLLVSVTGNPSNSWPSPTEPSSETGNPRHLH

As for GL183 (IgG1 anti KIR2DL3) (antibody), the RU, binding with first Ab present (RU2) in assay [1] was determined as 330 RU; in assay [2] it was 200 RU; in [6], 570 RU. The % inhibition of second Ab binding by first Ab is 18% in [3]; 40% in [5]; 8% in [7]; 76% in assay [8]; 75% in [11]. Further, the values for the RU, direct binding (RU1) in assay [4], in [9] and in assay [10] were 800 RU, 620 RU and 1240 RU, respectively.
With “monoclonal antibody DF200 produced by hybridoma DF200”, the % inhibition of second Ab binding by first Ab is 70% in the assay with immobilized KIR2DS1 [12]; 62% in assay [13]; 4% in assay [18]; 20% in assay [20]; 80% in assay [22]; 15% in assay [23]. In addition, the % inhibition of second Ab binding by first Ab in assay [24] is 15%; with immobilized KIR2DS1 [26] it was 15%; in [27], 75%; in assay [28], 75%; in assay [30] it was 27%; in the assay with immobilized KIR2DS1 [31], 87%. For the same substance, the % inhibition of second Ab binding by first Ab in assay [33] is 16%; in [36] it was 92%; in assay [37], 90%. The RU, binding with first Ab present (RU2) was 210 RU in [1]; 310 RU in assay [14]; 450 RU in assay [2]; 545 RU in [15]; 1090 RU with immobilized KIR2DS1 [16]; 290 RU in assay [19]. In addition, the RU, binding with first Ab present (RU2) in [6] and in assay [29] was 760 RU throughout. The RU, direct binding (RU1) in assay [17] came out at 600 RU; in assay [4], 770 RU; with immobilized KIR2DS1 [21], 900 RU; in [9], 790 RU; in assay [10], 1140 RU; in assay [34] it was 350 RU. The RU, direct binding (RU1) in assay [35] was 800 RU; in assay [38], 350 RU. Also, the EC50 (read off the curve) in assay [25] and in assay [32] was 20 nM in each case.

For the origin of these results see US20140193430A1.
